Substrate: CC(=O)N[C@H]1[C@H](Oc2ccc([N+](=O)[O-])cc2)O[C@H](CO)[C@@H](O[C@@H]2O[C@H](CO)[C@@H](O)[C@H](O)[C@H]2NC(C)=O)[C@@H]1O
Experiment: purified protein
Format: biochemical, Vibrio harveyi
Settings: 0.1 M sodium acetate pH 5.5, 30 °C, 10 min, 0-500 µM substrate

B1: VhChiA (Vibrio harveyi) (protein)
chain: APTAPSIDMYGSNNLQFSKIELAMETTSGYNDMVKYHELAKIKVKFNQWSGTSGDTYNVYFDGVKVATGAITGSQTTASFEYGQGGLYQMEIEACDATGCSKSAPVEITIADTDGSHLKPLTMNVDPNNKSYNTDPSIVMGTYFVEWGIYGRDYTVDNMPVDNLTHILYGFIPICGPNESVKSVGGNSFNALQTACRGVNDYEVVIHDPWAAYQKSFPQAGHEYSTPIKGNYAMLMALKQRNPDLKIIPSIGGWTLSDPFYDFVDKKNRDTFVASVKKFLKTWKFYDGVDIDWEFPGGGGAAADKGDPVNDGPAYIALMRELRVMLDELEAETGRTYELTSAIGVGYDKIEDVDYADAVQYMDYIFAMTYDFYGGWNNVPGHQTALYCGSFMRPGQCDGGGVDENGEPYKGPAYTADNGIQLLLAQGVPANKLVLGTAMYGRGWEGVTPDTLTDPNDPMTGTATGKLKGSTAQGVWEDGVIDYKGIKSFMLGANNTGINGFEYGYDAQAEAPWVWNRSTGELITFDDHRSVLAKGNYAKSLGLAGLFSWEIDADNGDILNAMHEGMAGGVVTPPNR
Km: 216 µM

Source: article PMC10991452, “Bioeconomic production of high-quality chitobiose from chitin food wastes using an in-house chitinase from Vibrio campbellii” (Bioresources and Bioprocessing, 2022)
